This assay deals with recombinant human MCL-1ΔNΔC (amino acids 172–320) (human, UniProt Q07820 172-320). Description: fluorescence polarisation. For orientation: In fluorescence polarisation assays a small probe gives low polarisation when free and higher when bound to something large.

Positions of bridges follow the written chain, without caps; N, C: chain ends. Non-standard residues stand in square brackets, D forms with d. No end group written: not given here. *: point of attachment. FITC = O=C1OC2(c3ccc(O)cc3Oc3cc(O)ccc32)c2ccc(NC(=S)*)cc21; S5 = C=CCCC[C@](C)(N)C(=O)O; Nle = CCCC[C@H](N)C(=O)O; βAla = NCCC(=O)O A value given as a limit tells only on which side of the number the result lay.

recombinant human MCL-1ΔNΔC (amino acids 172–320), sequence (Q07820 172-320, stated change not applied): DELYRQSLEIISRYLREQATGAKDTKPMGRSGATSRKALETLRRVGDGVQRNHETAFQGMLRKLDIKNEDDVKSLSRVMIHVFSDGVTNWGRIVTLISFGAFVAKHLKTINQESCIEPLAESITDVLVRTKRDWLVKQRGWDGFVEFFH

Regarding {FITC-βAla}-DIIRNIARHLA[S5]VGD[S5][Nle]DRSI (staple 12-16) [FITC-BID SAHBA], the equilibrium dissociation constant (Kd) is ≤ 50 nM.
As to {FITC-βAla}-QWAREIGAQLR[S5][Nle]AD[S5]LNAQY (staple 12-16) [FITC-PUMA SAHBA], the equilibrium dissociation constant (Kd) was ≤ 50 nM.

A word on the Kd: it is a measure of binding affinity in units of concentration.

Values taken from paper PMC3033224 (Nature chemical biology, 2010).
